Measured values published in paper PMC3314109.
pKd: −log10 of the molar value.

Molecular target: the mutants of both surface loops (39-loop and 60-loop mutants of FXa)
Assay: prothrombinase activity titration

Substance: factor Va (thrombin activated factor V) (from UniProt P12259 29-737; P12259 1574-2224) (complex)
- pKd: 8.70 to 9.00
